Data set [1] concerns the molecule itself. In words: SEC-MALS; single purified protein; 50 uL at 2 mg/mL on a WTC 015S5 column, 50 mM HEPES, 150 mM NaCl, 200 mM arginine, 1 mM TCEP, pH 8.0, 0.8 mL/min. For orientation: SEC sorts molecules by how far they enter the pores of the column.
Data set [2] concerns the target T1, periplasmic N-domain of RcpA (RcpAN) (Pseudomonas aeruginosa, UniProt Q9HW96 28-115).
T1 construct: RcpA outer membrane secretin, Pseudomonas aeruginosa, periplasmic N-domain (9.7 kDa, small globular Ig domain fold); Gene codon optimised, in pET28a; also called His-RcpAN; His-RspAN; source: E. coli BL21 (DE3), purified (Ni-NTA, SEC); also co-expressed with RcpC constructs and co-purified
T1 sequence: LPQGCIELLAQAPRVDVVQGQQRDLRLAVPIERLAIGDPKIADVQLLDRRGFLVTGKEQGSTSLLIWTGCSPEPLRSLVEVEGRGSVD
In words: SEC-MALS; co-expressed (two plasmids) and co-purified RcpC_(33-303)-RcpAN complex; 50 uL at 2 mg/mL on a WTC 015S5 column, 50 mM HEPES, 150 mM NaCl, 200 mM arginine, 1 mM TCEP, pH 8.0. The following applies: both partners purified.

We go through 1 molecule from PMC12307814, “The structure of the Tad pilus alignment complex reveals a periplasmic conduit for pilus extension” (Nature Communications, 2025).

B1: RcpC periplasmic domain (RcpC_(33-303)) (domain or fragment)
chain: NAHAPSVAPASATVDASLEKLERKPVLVASRDLPALAVIGRDDLSVELLRTAPVGSYDRPEALLGKRVWVAVPAGSILSAATLEPGGPLARTIRPDERAMAIAVDEVVGGGGFVLPGDYVDVMLFVRDERDGESTPLAQLVLPGVRVLTYGERIAVGSDGQDRSNQEKDPRPPRTAVLAVPEDGVARLMLASQAGSLRLAIRSKDEELYRREQEGALLQASLGAPSAALSLDQLLERRKPTAPSVRSAAPRVPVANGVTVYRGSAMTHEAP
notes: RcpC, Pseudomonas aeruginosa, residues 33-303 of the full-length protein (RcpC_(1-303)); lacks the N-terminal transmembrane helix; holds D1, D2, linker L3 and the C-terminal β-hairpin; Gene codon optimised, in pET21a; also called RcpCΔN; periplasmic region of RcpC; source: E. coli BL21 (DE3), purified (Ni-NTA, SEC); also co-expressed with RcpAN and co-purified; not shown: His tag (from the Ni-NTA …)
As a reminder, the stoichiometry N is a count of units in the complex or per binding partner. Regarding B1, the “stoichiometry N” value in data set [1] is 12 copies; in data set [2] it was 2 RcpC per RcpA (12:6 RcpC:RcpA).
